Reference: patent US11447574B2

Target: human IL-17A (human) (UniProt Q16552)

IC50, picomole, as defined by the cell IL6 test: 1100 picomole
Substance: AIN457 (anti-IL-17A antibody by Novartis)
